Patent US20190030126A1, “Inhibitors of the Interaction BCL-2 L10 / IP3 Receptors” (Universite Claude Bernard - Lyon 1, priority 2016, published 2019)

How the values were obtained:
[1] = molecular target: T1, Nrh/IP3R1 complex (Flag-Nrh / HA-hBD IP3R1) (Homo sapiens, UniProt Q9HD36); assay: Co-immunoprecipitation of Flag-Nrh and HA-hBD IP3R1 in HeLa cells pre-incubated with dTAT peptides; type: cell-based; settings: 10 μM peptide, pre-incubated 1 h at 37° C., no external agent
T1 construct: expressed in transfected cells; host or cells: HeLa
T1 sequence (Q9HD36 11-204): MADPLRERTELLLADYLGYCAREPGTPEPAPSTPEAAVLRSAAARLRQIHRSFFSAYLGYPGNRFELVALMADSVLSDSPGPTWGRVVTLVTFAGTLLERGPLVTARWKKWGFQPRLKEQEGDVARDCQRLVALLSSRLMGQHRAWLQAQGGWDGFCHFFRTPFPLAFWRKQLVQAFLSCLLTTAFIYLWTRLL
Method: (B) The interaction between Flag-Nrh and HA-hBD IP3R1 was assessed by co-immunoprecipitation in HeLa cells transfected with a plasmid coding for Flag-Nrh or HA-hBD IP3R1, pre-incubated with 10 μM control peptide (dTAT 1-23 C20A Y16F) or 10 μM peptide (dTAT 1-23 C20A). In this experiment, dTAT-Nrh 1-23 C20A but not dTAT 1-23 C20A Y16F disrupts the Nrh/IP3R1 complex.
The interaction between Flag-Nrh (Bcl-2 L10) and HA-hBD IP3R1 was assessed by co-immunoprecipitation in HeLa cells transfected with a plasmid coding for Flag-Nrh or HA-hBD IP3R1, pre-incubated for 1 h at 37° C. in Ca^2+-free Balanced Salt Solution (121 mM NaCl, 5.4 mM KCl, 0.8 mM MgCl2, 6 mM NaHCO3, 5.5 mM D-glucose, 25 mM HEPES, pH 7.3) with vehicle (peptide solvant [H2O-TFA 0.1%]), and: • 10 μM of control peptide (dTAT 1-23 Y16F C20A) or • 10 μM of wild-type peptide (dTAT 1-23 C20A).
Cells were washed twice and incubated for another 1 h at 37° C. before harvest.

MDA-MB-231 cancer cells = assay: MDA-MB-231 tumour growth in the mammary fat pad of SCID mice; type: in vivo; settings: 10 mg/kg, peritumoral injection, once every three days, monotherapy, versus vehicle (PBS); P<0.01
Method: (A) MDA-MB-231 cells have been injected into the mammary fat pad of SCID mice. When the tumors reached a mean volume of about 90 mm^3, mice were treated with dTAT 1-23 C20A peptide at 10 mg/kg, peritumoral injection, once every three days, or vehicle alone (PBS) with the same injection periodicity.
SCID Mice have been used as tumor model for testing the effects of administration of the peptides according to the invention
MDA-MB-231 cancer cells have been injected into the mammary fat pad of SCID mice.

“CKRKKRRQRRRGGSGGADPLRERTELLLADYLGYAARE [dTAT 1-23 C20A]” was tested, and the “disruption of the Nrh/IP3R1 complex (co-immunoprecipitation)” value [1] was “disrupt the Nrh/IP3R1 complex” and the “effect on tumoral growth (tumor volume)” value (MDA-MB-231 cancer cells) was “significant effect”.
